Source: publication doi:10.1101/2025.08.09.669497 (bioRxiv, 2025)
Like-named read-outs stand apart in the source and are kept apart here.

Legend:
[1] = target: BKPyV VP1 pentameric core (residues 26-297) (BK polyomavirus (BKPyV)) (UniProt P03088); assay: crystal structure
[2] = target: 319C07 (Potravitug), human IgG monoclonal antibody (human); assay: BLI
[3] = target: T1, BKPyV VP1 pentameric core (residues 26-297) (BK polyomavirus, strain ; …, UniProt P03088); assay: crystal structure
[4] = target: T1, BKPyV VP1 pentameric core (residues …); assay: crystal structure; remark: listed apart in the source
[5] = target: BKPyV VP1 pentamer, genotype III-AS (M23122), ALFA-tagged (BK polyomavirus (BKPyV), strain AS, UniProt P14996); assay: BLI
[6] = target: T1, BKPyV VP1 pentameric core (residues …); assay: crystal structure; remark: listed apart in the source

“BKPyV VP1 pentameric core (residues 26-297) (from UniProt P03088 26-297) (domain or fragment)” was tested, and the stoichiometry N [1] was 5.

“BKPyV VP1 single-point mutant K69N in the Dunlop background (from UniProt P03088 1-362) (natural protein)” showed a Kd [2] of 4.5 µM and a fold reduction of affinity against the Dunlop background [2] of over 1000 fold.

B1: ORT-VHH17 (VHH)
VHH: EVQLVESGGGLVQAGGSLRLSCAASGRDLSNYDMGWFRQAPGKEREFVATIKWRSGGTNHAESVKGRFTISRDNAKNTVYLQMSSLKPEDTAVYYCAAAPNWLGYSFKVDDYIYWGQGTQVTVSS
For B1, the “stoichiometry N” value [3] was 1 nanobody per VP1 monomer.

B2: ORT-VHH16 (VHH)
VHH: EVQLVESGGGLVQAGGSLRLSCAASGRTFDHYAMGWFRQAPGKERELVARISSGGGTTNYADSVKGRFTISRDNAKNTVSLQMNSLKPEDTAVYYCVGEIQYGTRYYWGQGTQVTVSS
For B2, the “stoichiometry N” value [4] was 1 nanobody per VP1 monomer.

B3: 319C07 (Potravitug), human IgG monoclonal antibody (antibody, V domains shown)
VH: QVQLQQWGAGLLKPSETLSLTCAVYRGSFSAYYWTWFRQPPGKGLEWIGEINHRGYTNYNPSLRGRVSISVDTSKKQFSLKLRSVNAADTAVYYCATLRSTSGWHDYFDYWGQGTLVTVSS
VL: EIVLTQSPGTLSLSPGERATLSCRASQSVSSSYLAWYQQTPGQAPRLLIYGASSRATGIPDRFSGSGSGTDFTLTISRLEPEDFVVYFCLQYGSSPLTFGPGTKVDIK
B3: binds [5].

B4: Potravitug single-chain variable fragment (scFv-319C07) (scFv, V domains shown)
VH: QVQLQQWGAGLLKPSETLSLTCAVYRGSFSAYYWTWFRQPPGKGLEWIGEINHRGYTNYNPSLRGRVSISVDTSKKQFSLKLRSVNAADTAVYYCATLRSTSGWHDYFDYWGQGTLVTVSS
VL: EIVLTQSPGTLSLSPGERATLSCRASQSVSSSYLAWYQQTPGQAPRLLIYGASSRATGIPDRFSGSGSGTDFTLTISRLEPEDFVVYFCLQYGSSPLTFGPGTKVDIK
In the case of B4, the “stoichiometry N” value [6] is reported as 3 scFv per VP1 pentamer.
